Test results reported in patent CN115710309A (INST PASTEUR SHANGHAI CAS, dated 2023).

B1: 单抗8D3 (antibody, V domains shown)
VH: EVQLQQSGPELVKPGASVKISCKTSGYTFTEYTMYWVKQSHGKSLEWIGGINPNIGDTSYNQNFKGKATLTVDRSSSTAYMELRSLTSEDSAVYYCARDGYPYYYALDHWGQGTSVTVSS
VL: DIVMTQSQKFMSTSVGDRVSVTCKASQNVGTNVAWYQQKPGQSPKALIYSTSYRYSGVPDRFTGSGSGTDFTLTISNVQSEDLAEYFCQQYNSYPYTFGGGTKLEIKR
B2: 单抗2G3 (antibody)
heavy: QVQLQQPGAELVKPGASVKMSCKASGYTFTTYTIHWLRQTPGQGLEWIGAIYPGIGDTSYNQSFKGKATLTADKSSSTAYMQLSSLTSEDSAVYYCARDGNYAPFTYWGQGTLVTVSAAKTTPPSVYPLAPGSAAQTNSMVTLGCLVKGYFPEPVTVTWNSGSLSSGVHTFPAVLQSDLYTLSSSVTVPSSTWPSETVTCNVAHPASSTKVDKKIVPRDCGCKPCICTVPEVSSVFIFPPKPKDVLTITLTPKVTCVVVDISKDDPEVQFSWFVDDVEVHTAQTQPREEQFNSTFRSVSELPIMHQDWLNGKEFKCRVNSAAFPAPIEKTISKTKGRPKAPQVYTIPPPKEQMAKDKVSLTCMITDFFPEDITVEWQWNGQPAENYKNTQPIMDTDGSYFVYSKLNVQKSNWEAGNTFTCSVLHEGLHNHHTEKSLSHSPGK
light: DIVMSQSPSSLAVSVGEKVTMSCKSSQSLLYSNNQKNYLAWYQQKPGQSPKLLIYWTSTRESGVPDRFTGSGSGTDFTLTINSVKAEDLAVYYCQQYYRYPLTVGAGTKLELKRADAAPTVSIFPPSSEQLTSGGASVVCFLNNFYPKDINVKWKIDGSERQNGVLNSWTDQDSKDSTYSMSSTLTLTKDEYERHNSYTCEATHKTSTSPIVKSFNRNEC

Assays:
Experiment in all cases: cell-based or functional assay
[1] = target: SARS-CoV-2 B.1.351突变株S蛋白 (假病毒) (SARS-CoV-2, UniProt P0DTC2 14-1273)
[2] = target: SARS-CoV-2 B.1.617.1突变株S蛋白 (假病毒) (SARS-CoV-2, UniProt P0DTC2 14-1273)
[3] = target: SARS-CoV-2 B.1.617.2突变株S蛋白 (假病毒) (SARS-CoV-2, UniProt P0DTC2 14-1273)

Binder | 假病毒中和 IC50 [1] | 假病毒中和 IC50 [2] | 假病毒中和 IC50 [3]
B1 | 6 ng/mL | 2 ng/mL | 8 ng/mL
B2 | 4 ng/mL | 1 ng/mL | 84 ng/mL
